Test [1] addresses human TGF-beta 1 (R&D Systems, Cat # 240-B/CF) (human) (UniProt P01137). In words: Biacore SPR, calculated koff/kon.
The target is the same in test [2]. Put plainly: Biacore SPR, mAb captured on Protein A, TGF-beta 1 injected. (In general: Surface plasmon resonance follows binding to a sensor surface in real time, without labels.)
Test [3] shares this target. Put plainly: Biacore SPR, mAb captured on Protein A, 5 nM ligand injected; stoichiometry from captured signals.
The target is the same in test [4]. In words: cell-based or functional assay.
For test [5], the target named is T1, human TGF-beta 3 (RDI, Cat # RDI-1036/CF) (human) (UniProt P10600).
T1 sequence (looked up): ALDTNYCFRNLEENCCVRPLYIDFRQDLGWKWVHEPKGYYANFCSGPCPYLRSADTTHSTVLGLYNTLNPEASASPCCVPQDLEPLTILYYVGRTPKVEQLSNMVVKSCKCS
In words: Biacore SPR, equilibrium fit, mAb captured on Protein A, TGF-β3 injected.

For a further test, the target named is T2, latent TGF-beta 1 (UniProt P01137 30-390, limits assumed).
T2 construct: Latent complex (pro-peptide with mature TGF-beta 1); also called Latent TGF-β1; latent form of TGF-beta 1
Put plainly: Biacore SPR, mAb captured on Protein A, 5 nM ligand injected; stoichiometry from captured signals. The method, then:
BIAcore methods are used to determine the ability of invention mAb compositions to bind other entities, specifically the latent form of TGF-beta 1 or TGF-beta 3. All measurements are performed at room temperature. Samples are dissolved in HBS-EP buffer (150 mM sodium chloride, 3 mM EDTA, 0.01% (w/v) surfactant P-20, and 10 mM HEPES, pH7.4). Recombinant Protein A is immobilized on all four flow cells of a CM4 sensor chip at a level of 400-450 response units (RUs) using an amine coupling kit.
Binding is evaluated using multiple analytical cycles. Each cycle is performed at a flow rate of 100 μL/minute consisting of the following steps: injection of 15 μL of an antibody binding composition at 1 μg/mL, injection of 250 μL of either 5 nM TGF-beta 1, 5 nM latent TGF-beta 1, or 5 nM TGF-beta 3 followed by a short delay (5 min) for dissociation, and regeneration using two injections of 50 μL of 10 mM glycine hydrochloride, pH1.5. The amount of signal after capturing first the Mab, and then the ligand, are determined using the instrument control software. Since the signal is proportional to the mass of protein captured, the stoichiometry of the captured ligand is readily calculable (Table 4).

Test [6] deals with T1, human TGF-beta 3 (RDI, Cat # RDI-1036/CF) (human). Put plainly: ratio of Biacore Kd for TGF-β3 to Kd for TGF-β1.
For test [7], the target named is T3, TGF-beta 1 mutein (R25K, K26R, V33I, P87T, V89L, K95T) (Homo sapiens (Human), UniProt P01137 279-390, Mature TGF-beta 1 is a disulfide-linked homodimer; one monomer chain is given.).
T3 chain: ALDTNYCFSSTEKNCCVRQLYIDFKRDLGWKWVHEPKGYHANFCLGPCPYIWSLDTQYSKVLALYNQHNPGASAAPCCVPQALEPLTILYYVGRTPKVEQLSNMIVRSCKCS
Put plainly: laser desorption/ionization time-of-flight MS on chips (Ciphergen).

T2 sequence (P01137 30-390 limits assumed): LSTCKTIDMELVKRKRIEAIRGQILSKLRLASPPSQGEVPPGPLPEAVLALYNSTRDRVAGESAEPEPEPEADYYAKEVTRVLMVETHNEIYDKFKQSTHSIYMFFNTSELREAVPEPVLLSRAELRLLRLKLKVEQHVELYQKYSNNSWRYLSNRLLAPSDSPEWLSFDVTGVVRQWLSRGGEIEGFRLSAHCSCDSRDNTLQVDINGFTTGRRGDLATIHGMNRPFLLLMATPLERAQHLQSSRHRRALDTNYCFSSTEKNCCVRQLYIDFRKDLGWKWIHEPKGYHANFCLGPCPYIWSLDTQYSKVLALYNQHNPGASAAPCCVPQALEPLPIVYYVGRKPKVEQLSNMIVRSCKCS

B1: mAb C27 (antibody, IgG4, V domains shown)
VH: QVQLVQSGAEVKKPGASVKVSCKASGYTFTDYNIHWVRQAPGQGLEWMGYIYPYDGETGYNQKFKSRVTMTTDTSTSTAYMELRSLRSDDTAVYYCARGYRAFEYWGQGTLVTVSS
VL: DIQMTQSPSSLSASVGDRVTITCRASSSVPYMHWYQQKPEKAPKSLIYATSNLAFGVPSRFSGSGSGTDFTLTISSLQPEDFATYYCQQWDLNPPAFGQGTKLEIK
The Kd is the equilibrium constant for the complex coming apart. The koff is a measure of how fast the partners let go of each other. The low end stands for slow dissociation, the high end for fast dissociation. The term kon denotes a measure of how fast the partners come together. A lower kon goes with slow association. Take B1: the Kd in test [1] is 0.0006 nM; in test [5], 2.2 nM. This molecule had an off-rate constant (koff) in test [2] of 8e-06 s⁻¹. In test [2], this molecule yielded an association rate constant (kon) of 1.3e+07 M⁻¹ s⁻¹. Moreover, the Stoichiometry of ligand binding was found to be 1.74 in test [3] and 0.08 in the test with latent TGF-beta 1. Further, the Fold Improvement in IC50 relative to mAb2471 (HT-2 cell proliferation assay) in test [4] came to 401 fold. The Specificity (Kd, β3/Kd, β1) in test [6] was determined as 3670 fold.

B2: mAb 1D11 (R&D Systems) (antibody, V domains shown)
VH: QVQLQQSGPELVRPGASVKLSCKASGYIFITYWMNWVKQRPGQGLEWIGQIFPASGSTNYNEMFEGKATLTVDTSSSTAYMQLSSLTSEDSAVYYCARGDGNYALDAMDYWGQGTSVTVSS
VL: DIVLTQSPASLAVSLGQRATISCRASESVDSYGNSFMHWYQQKSGQPPKLLIYLASNLESGVPARFSGSGSRTDFTLTIDPVEADDAATYYCQQNNEDPLTFGAGTKLEIK
For the molecule B2, in test [7], the “fold less binding of the TGF-beta 1 mutein relative to wild type TGF-beta 1” value is 2.5 fold.

(Values after patent publication US20080050375A1 (Eli Lilly, published 2008).)
